# Measured values published in US20110311601A1, “ANTIMICROBIAL MEDICAL DEVICES” (priority 2010, published 2011).
# Where no end group is shown, it is not given here.
# B1: Ribonuclease 7 (protein)
# chain: KPKGMTSSQWFKIQHMQPSPQACNSAMKNINKHTKRCKDLNTFLHEPFSSVAATCQTPKIACKNGDKNCHQSHGPVSLTMCKLTSGKYPNCRYKEKRQNKSYVVACKPPQKKDSQQFHLVPVHLDRVL
# modifications: Homo sapien
# B2: mutRNAse7: Ribonuclease 7 derivative, SEQ ID NO: 10 (protein)
# chain: KPKGMTSSQWFKIQHMQPSPQACNSAMKNINKHTKRCRDLNTFLHEPFSSVAATCQTPKIACKNGDKNCHQSHGPVSLTMCKLTSGKYPNCRYKEKRQNKSYVVACKPPQKKDSQQFHLVPVDLDRVL
# modifications: Synthetic primer
# Columns and labels:
# [1] = test system: Escherichia coli strain DB3.1; assay: microdilution assay of hβD2 coated biopolymers (percentage killing); format: cell-based; conditions: blocking substance alone, without hβD2
# Method: Microdilution assay. In the microdilution assay the microorganisms were exposed to a potential bio-active substance in liquid surrounding, thus free to move. This potential bio-active substance was either homogenously dispersed in the liquid surrounding by active mixing at the beginning of the tests or could spread out of the sample during incubation time. The bioactivity was measured in percentage killing, wherein the number of colony forming units (CFU) in a control without test substance was set to 0% killing and a reduction in the cell number to zero was set to 100% killing.
# Fresh cells were harvested by centrifugation at 1600 rpm for 10 min, the supernatant was removed and the cell pellet was resuspended in 5 ml 10 mM sodium phosphate buffer. This procedure was repeated twice. The optical density was adjusted to OD600 of 0.500 with 10 mM sodium phosphate buffer. 100 μl of the bacterial suspension was pipetted in one well of a microtiter plate without optimized surface. 10 μl test substance or test sample was added. In case of a test substance, the mixture was homogenized by absorbing the mixture several times with a pipette. The microtiter plate is then closed with parafilm and incubated at 37° C. for 2 h. After incubation the substances in the wells were mixed by a pipette. […] For evaluation, the grown colonies were counted.
# The microdilution assay facilitates the examination of the hβD2 release kinetics of the biopolymers and thus allowed conclusions on what amounts of hβD2 in which time could be released. For comparing on evaluation of the assay the effect of directly applied hβD2 amounts with the effect of hβD2 amounts applied on biopolymers, the achieved percentage killing of bacteria was compared to the killing rate of the hβD2 standard series in the microdilution assays.
# The collagen scaffolds and polylactide matrices were examined in the microdilution assay regarding their hβD2 release kinetics. Since the incubation time of the samples in the bacterial suspension is limited, the samples were stored at −25° C. after the test and until completion of a further assay. The thawed samples were then used in a new assay and were incubated again.
# [2] = test system: gram-positive bacteria; conditions: covalently attached onto titanium surfaces, in vitro; cited from earlier work
# [3] = target: collagen scaffold (bovine collagen type I) (bovine, UniProt P02453 162-1217; P02465 80-1117, limits assumed); assay: cell-based or functional assay
# collagen scaffold (bovine collagen type I), sequence (P02453 162-1217 limits assumed, chain 1 of 2): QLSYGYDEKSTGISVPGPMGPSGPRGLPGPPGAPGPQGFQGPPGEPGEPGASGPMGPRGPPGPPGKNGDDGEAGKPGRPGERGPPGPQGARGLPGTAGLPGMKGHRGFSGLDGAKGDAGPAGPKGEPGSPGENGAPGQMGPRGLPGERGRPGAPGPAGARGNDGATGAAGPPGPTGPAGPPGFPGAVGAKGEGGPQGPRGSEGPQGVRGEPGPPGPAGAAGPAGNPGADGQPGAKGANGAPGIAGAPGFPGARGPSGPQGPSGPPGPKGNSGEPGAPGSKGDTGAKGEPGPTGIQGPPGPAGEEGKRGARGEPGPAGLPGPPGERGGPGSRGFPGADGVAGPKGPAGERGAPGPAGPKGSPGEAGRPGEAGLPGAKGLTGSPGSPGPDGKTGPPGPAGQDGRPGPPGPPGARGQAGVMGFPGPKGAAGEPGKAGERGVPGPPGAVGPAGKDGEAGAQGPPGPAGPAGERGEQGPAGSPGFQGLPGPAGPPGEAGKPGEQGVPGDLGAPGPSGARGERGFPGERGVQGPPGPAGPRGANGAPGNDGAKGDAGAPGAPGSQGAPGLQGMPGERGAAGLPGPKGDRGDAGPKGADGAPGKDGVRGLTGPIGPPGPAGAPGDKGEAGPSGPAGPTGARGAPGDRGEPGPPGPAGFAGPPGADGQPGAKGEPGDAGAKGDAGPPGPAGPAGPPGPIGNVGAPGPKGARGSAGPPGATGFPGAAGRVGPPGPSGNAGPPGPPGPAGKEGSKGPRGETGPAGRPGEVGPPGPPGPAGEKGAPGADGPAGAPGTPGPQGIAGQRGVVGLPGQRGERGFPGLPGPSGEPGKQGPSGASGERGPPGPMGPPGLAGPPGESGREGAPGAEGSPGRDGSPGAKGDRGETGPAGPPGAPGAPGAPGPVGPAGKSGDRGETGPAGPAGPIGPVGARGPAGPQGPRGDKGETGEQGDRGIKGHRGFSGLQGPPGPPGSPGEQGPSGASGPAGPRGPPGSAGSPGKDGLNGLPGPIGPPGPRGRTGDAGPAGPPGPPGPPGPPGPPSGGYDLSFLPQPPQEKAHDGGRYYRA
# collagen scaffold (bovine collagen type I), sequence (P02465 80-1117 limits assumed, chain 2 of 2): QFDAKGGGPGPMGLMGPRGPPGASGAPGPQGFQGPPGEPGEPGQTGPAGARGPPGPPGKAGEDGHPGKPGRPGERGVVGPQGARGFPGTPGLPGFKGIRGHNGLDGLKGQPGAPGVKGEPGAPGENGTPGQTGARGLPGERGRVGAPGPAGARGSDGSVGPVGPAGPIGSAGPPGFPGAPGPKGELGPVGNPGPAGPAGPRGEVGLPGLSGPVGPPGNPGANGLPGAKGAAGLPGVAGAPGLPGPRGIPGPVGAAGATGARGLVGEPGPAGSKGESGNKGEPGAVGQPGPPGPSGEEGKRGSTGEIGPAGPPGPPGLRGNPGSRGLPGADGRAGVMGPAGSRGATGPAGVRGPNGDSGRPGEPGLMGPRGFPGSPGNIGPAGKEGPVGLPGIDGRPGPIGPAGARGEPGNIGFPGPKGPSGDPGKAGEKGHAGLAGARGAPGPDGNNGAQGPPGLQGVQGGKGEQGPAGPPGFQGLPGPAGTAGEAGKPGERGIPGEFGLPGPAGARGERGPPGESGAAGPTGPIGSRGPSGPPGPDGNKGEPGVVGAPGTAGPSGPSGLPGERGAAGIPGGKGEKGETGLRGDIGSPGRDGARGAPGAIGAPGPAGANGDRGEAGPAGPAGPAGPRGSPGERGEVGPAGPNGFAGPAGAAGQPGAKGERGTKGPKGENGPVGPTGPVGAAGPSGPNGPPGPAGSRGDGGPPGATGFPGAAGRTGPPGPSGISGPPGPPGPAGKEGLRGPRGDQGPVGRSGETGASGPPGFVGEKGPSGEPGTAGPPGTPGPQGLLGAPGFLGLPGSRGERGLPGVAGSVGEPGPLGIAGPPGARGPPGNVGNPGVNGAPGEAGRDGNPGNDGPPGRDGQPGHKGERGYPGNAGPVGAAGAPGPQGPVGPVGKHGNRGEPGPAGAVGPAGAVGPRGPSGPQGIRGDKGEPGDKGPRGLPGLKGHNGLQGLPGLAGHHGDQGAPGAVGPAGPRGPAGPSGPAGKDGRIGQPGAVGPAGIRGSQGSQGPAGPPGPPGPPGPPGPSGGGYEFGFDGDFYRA
# [4] = test system: Escherichia coli strain DB3.1; assay: micro-dilution assay of coated titanium pins and peptide controls (bacterial killing, CFU); format: cell-based; conditions: for antibacterial activity, killing: 10 μg coated on SAM 1, SAM 2, SAM 3 titanium pins, 2 h
# Method: In a first experiment 10 μg of hβD2 was coated to three different SAM Hexadecyltrimethoxysilane (SAM 1), Dimethoxymethyloctylsilane (SAM 2), and oxidized Allyltrimethoxysilane (SAM 3) of the modified titanium pins. The anti-bacterial activity of the hβD2-coated pins was tested by a micro-dilution assay. Therefore, Escherichia coli strain DB3.1 (Invitrogen, Cat. No. 11782-018) was used. E. coli was streaked from a glycerol stock onto a Brain Heart Infusion (BHI) agar plate (3.7% (w/v) BHI Bouillon, 1.5% (w/v) Agar), grown overnight at 37° C. and subsequently used to inoculate 40 ml of 3.7% (w/v) BHI Bouillon without any antibiotics in 100 ml flasks. Fresh cells were harvested by centrifugation at 16000 rpm for 10 min and washed twice with 10 mM sodium phosphate buffer, pH 7.2. The optical density was adjusted to 10^4 cells/ml. For anti-bacterial testing, a single pin coated with hβD2 was incubated in one well of a microtiter plate containing 100 μl of the bacterial suspension.
# Functionalized titanium pins without hβD2 served as negative controls (SAM1-n, SAM2-n, SAM3-n, SAM4::Col-NHS-n, SAM4::Col-Glu-n). In addition, 5 independent control reactions consisting of hβD2 in a final amount of 0 (NC), 0.02 (PC1), 0.2 (PC2), 2 (PC3) and 10 (PC4) μg were examined in parallel. To determine the specificity of the anti-bacterial activity of hβD2, 10 μl (10 μg/ml in PBS) of polyclonal monospecific anti-hβD2 antibodies were co-incubated with 10 μg of hβD2 and bacterial cells (Table I, PC4/ab).
# The microtiter plates were incubated for 2 h at 37° C. The kinetic studies were performed by replacing the bacterial suspension, after 2 h of cultivation with a freshly pre-cultured E. coli solution, which contained the same bacterial concentration, and cultivating for another 2 h and so on. Colony forming units (CFU) were determined after plating 100 μl of a 1:100 dilution of the bacterial suspension on petri dishes with BHI medium and incubating them overnight at 37° C. For every group of the functionalized titanium pins and the controls, 5 independent anti-bacterial assays were performed. A control (NC) of bacterial growth was examined for every independent assay. The number of CFU on the control (consisting of a single petri dish) was set to 0% bactericidal activity. The reduction in the CFU resulting from the anti-bacterial activity of hβD2 was related to the absolute CFU of the control within every independent assay. This value, given as a percentage of the bacterial “killing” activity, was used to describe the antibacterial activity. This kind of normalisation of the antibacterial data was performed for every experimental group.
# To examine the release behavior of hβD2 that is adsorbed by different SAM modified titanium pins a time kinetic experiment was performed. The experiment was performed analogous to Example 2. For this experiment 80 μg of hβD2 was adsorbed to three different SAMs Hexadecyltrimethoxysilane (SAM1), Dimethoxymethyloctylsilane (SAM2), and oxidized Allyltrimethoxysilane (SAM3) of the modified titanium pins.
# Since it is known that collagen has a positive impact on wound healing, functionalised titanium pins with collagen were investigated. Two different cross-linking strategies for collagen on SAM3 and SAM4 were applied as described in Example 1: (i) a covalently binding strategy with the NHS/EDC cross-linking system, and (ii) the use of glutaraldehyde. Successful binding of collagen was monitored by collagen-specific DirectRed staining (as described in Example 1). […] Additionally 80 μg hβD2 was adsorbed to collagen functionalized SAM3 and SAM4 modified titanium pins, respectively. For monitoring the antibacterial activity of the bio-coated pins the experiment was performed analogous to Example 3. […]
# [5] = 80 μg adsorbed on SAM3 titanium pins, 6 h
# [6] = 80 μg on collagen SAM4 pins, NHS/EDC-system, 4 h
# [7] = 80 μg on collagen SAM4 pins, NHS/EDC-system, 6 h
# [8] = 80 μg on collagen SAM4 pins, glutaraldehyde, 4 h
# [9] = 80 μg on collagen SAM4 pins, glutaraldehyde, 6 h
molecule,measurement,setting,value
"N[C@@H](CCC(=O)O)C(=O)O [L-glutamic acid, reference compound]",self-activity (killing / reduction of the number of bacteria),[1],4%
"NCCCC[C@H](N)C(=O)O [L-lysine, reference compound]",self-activity (killing / reduction of the number of bacteria),[1],4%
"O=C([O-])CC(O)(CC(=O)[O-])C(=O)[O-].[Na+].[Na+].[Na+] [Sodium citrate, sodium citrate, reference compound]",self-activity (killing / reduction of the number of bacteria),[1],100%
"NCCCCNCCCN [spermidine, reference compound]",self-activity (killing / reduction of the number of bacteria),[1],35%
CN[C@H](CC(C)C)C(=O)N[C@H]1C(=O)N[C@@H](CC(N)=O)C(=O)N[C@H]2C(=O)N[C@H]3C(=O)N[C@H](C(=O)N[C@H](C(=O)O)c4cc(O)cc(O)c4-c4cc3ccc4O)[C@H](O)c3ccc(c(Cl)c3)Oc3cc2cc(c3O[C@@H]2O[C@H](CO)[C@@H](O)[C@H](O)[C@H]2O[C@H]2C[C@](C)(N)[C@H](O)[C@H](C)O2)Oc2ccc(cc2Cl)[C@H]1O [vancomycine],reduced colony-forming of gram-positive bacteria,[2],up to 88%
chondroitin sulphate [reference compound],self-activity (killing / reduction of the number of bacteria),[1],23%
poly-L-glutamic acid [reference compound],self-activity (killing / reduction of the number of bacteria),[1],no self-activity
poly-L-lysine [reference compound],self-activity (killing / reduction of the number of bacteria),[1],100%
GIGDPVTCLKSGAICHPVFCPRRYKQIGTCGLPGTKCCKKP (ends and bridges not checked; cysteine pairing not given here) [human β-defensin-2],"hβD2 released by the scaffold (agar diffusion assay, zone of inhibition against E. coli, 10 µg hβD2 applied)",[3],40%
same,"hβD2 retarded by the scaffold (agar diffusion assay, zone of inhibition against E. coli, 10 µg hβD2 applied)",[3],60%
B1,"antibacterial activity, killing",[4],about 90%
same,killing rate,[4]; [5],21%
same,killing rate,[4]; [6],49%
same,killing rate,[4]; [7],about 22%
same,killing rate,[4]; [8],77%
same,killing rate,[4]; [9],about 8%
B2,"antibacterial activity, killing",[4],about 90%
same,killing rate,"[4]; 80 μg adsorbed on SAM1 titanium pins, 6 h",~41%
same,killing rate,[4]; [5],17%
same,killing rate,[4]; [6],53%
same,killing rate,[4]; [7],~17%
same,killing rate,[4]; [8],75%
same,killing rate,[4]; [9],~15%
